System: Escherichia coli TOP10
Test: shrunken log2 fold change of peptide-encoding DNA abundance (4.5 h post-induction vs induction); higher = less antimicrobial activity (less host growth inhibition)
Conditions: time post-induction: 4.5 h; library: site-saturation at positions 5, 18, 19, 20
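Further: peptides expressed intracellularly from a pBAD plasmid library in pooled LB shake-flask culture, induced with 0.3% L-arabinose, DNA abundance read by NGS, three biological replicates, DESeq2 with apeglm shrinkage.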

Sequence	shrunken log2 fold change
RRIRERPPRLPRPRPRPNSPPRP	-0.00647
RRIRFRPPRLPRPRPRPFHCPRP	-0.102
RRIRRRPPRLPRPRPRPDWPPRP	0.556
RRIRHRPPRLPRPRPRPETYPRP	-0.00431
RRIRERPPRLPRPRPRPPWQPRP	0.0988
RRIRCRPPRLPRPRPRPAGAPRP	0.417
RRIRVRPPRLPRPRPRPKCEPRP	0.0936
RRIRPRPPRLPRPRPRPRNSPRP	0.0183
RRIRFRPPRLPRPRPRPAYQPRP	-0.135
RRIRDRPPRLPRPRPRPSQYPRP	-0.697
RRIRPRPPRLPRPRPRPGYQPRP	-0.0523
RRIRPRPPRLPRPRPRPGMQPRP	0.515
RRIRSRPPRLPRPRPRPILKPRP	-0.469
RRIRKRPPRLPRPRPRPCQVPRP	-0.00846
RRIRARPPRLPRPRPRPRADPRP	0.924
RRIRPRPPRLPRPRPRPKEGPRP	-0.00237
RRIRQRPPRLPRPRPRPMSKPRP	-0.0682
RRIRYRPPRLPRPRPRPSPNPRP	-1.34
RRIRGRPPRLPRPRPRPYWYPRP	-0.211
RRIRFRPPRLPRPRPRPAEQPRP	1.16
RRIRDRPPRLPRPRPRPVQNPRP	0.577
RRIRNRPPRLPRPRPRPVWKPRP	0.119
RRIRCRPPRLPRPRPRPEQTPRP	0.0662
RRIRMRPPRLPRPRPRPAVIPRP	-0.1
RRIRSRPPRLPRPRPRPPFLPRP	-0.0588

Sequence	shrunken log2 fold change
RRIRVRPPRLPRPRPRPRVSPRP	0.205
RRIRMRPPRLPRPRPRPERNPRP	0.0507
RRIRNRPPRLPRPRPRPRNWPRP	-0.149
RRIRDRPPRLPRPRPRPNIYPRP	-0.3
RRIRDRPPRLPRPRPRPRQGPRP	0.0779
RRIRKRPPRLPRPRPRPRTQPRP	0.605
RRIRYRPPRLPRPRPRPMTWPRP	-0.31
RRIRCRPPRLPRPRPRPGCEPRP	0.159
RRIRTRPPRLPRPRPRPNWMPRP	0.286
RRIRLRPPRLPRPRPRPMHDPRP	-0.134
RRIRCRPPRLPRPRPRPFQMPRP	-0.423
RRIRNRPPRLPRPRPRPYAVPRP	-0.0739
RRIRVRPPRLPRPRPRPVPIPRP	-0.0742
RRIRDRPPRLPRPRPRPSCAPRP	-0.0293
RRIRMRPPRLPRPRPRPEYHPRP	-0.00495
RRIRQRPPRLPRPRPRPTIGPRP	0.0815
RRIRDRPPRLPRPRPRPNWIPRP	-0.389
RRIRGRPPRLPRPRPRPHCFPRP	0.233
RRIRWRPPRLPRPRPRPQHFPRP	0.418
RRIRGRPPRLPRPRPRPAKPPRP	0.82
RRIRMRPPRLPRPRPRPNVYPRP	-0.368
RRIRRRPPRLPRPRPRPKQYPRP	-0.215
RRIRLRPPRLPRPRPRPQHGPRP	-0.0844
RRIRKRPPRLPRPRPRPCYSPRP	-0.178
RRIRDRPPRLPRPRPRPECHPRP	0.479

Sequence	shrunken log2 fold change
RRIRLRPPRLPRPRPRPFACPRP	0.119
RRIRNRPPRLPRPRPRPPKQPRP	0.22
RRIRMRPPRLPRPRPRPPLIPRP	0.242
RRIRMRPPRLPRPRPRPVQPPRP	0.229
RRIRFRPPRLPRPRPRPAPGPRP	0.668
RRIRARPPRLPRPRPRPTWQPRP	0.4
RRIRYRPPRLPRPRPRPPDAPRP	0.0465
RRIRQRPPRLPRPRPRPEHYPRP	-0.153
RRIRTRPPRLPRPRPRPHSKPRP	-0.2
RRIRTRPPRLPRPRPRPLCMPRP	-0.385
RRIRMRPPRLPRPRPRPHTWPRP	-0.0904
RRIRARPPRLPRPRPRPSLTPRP	0.172
RRIRGRPPRLPRPRPRPPMWPRP	1.1
RRIRWRPPRLPRPRPRPDGKPRP	0.00353
RRIRFRPPRLPRPRPRPLQSPRP	0.11
RRIRERPPRLPRPRPRPRVTPRP	0.107
RRIRIRPPRLPRPRPRPVHKPRP	-0.442
RRIRERPPRLPRPRPRPRDGPRP	0.237
RRIRQRPPRLPRPRPRPYRCPRP	-0.122
RRIRDRPPRLPRPRPRPPNPPRP	0.0735
RRIRCRPPRLPRPRPRPDLWPRP	0.134
RRIRCRPPRLPRPRPRPMRRPRP	0.163
RRIRWRPPRLPRPRPRPNERPRP	0.119
RRIRLRPPRLPRPRPRPGCVPRP	0.182
RRIRFRPPRLPRPRPRPEHIPRP	-0.161

Sequence	shrunken log2 fold change
RRIRYRPPRLPRPRPRPCRNPRP	-0.072
RRIRYRPPRLPRPRPRPDKPPRP	-0.0375
RRIRTRPPRLPRPRPRPFLAPRP	-0.0751
RRIRCRPPRLPRPRPRPAKGPRP	-0.179
RRIRSRPPRLPRPRPRPSSNPRP	-0.872
RRIRNRPPRLPRPRPRPPRGPRP	1.3
RRIRMRPPRLPRPRPRPYNYPRP	-0.2
RRIRFRPPRLPRPRPRPHTGPRP	-0.411
RRIRLRPPRLPRPRPRPDNMPRP	-0.519
RRIRPRPPRLPRPRPRPIQEPRP	-0.019
RRIRHRPPRLPRPRPRPKDMPRP	-0.282
RRIRKRPPRLPRPRPRPIAAPRP	0.317
RRIRSRPPRLPRPRPRPFPTPRP	-0.101
RRIRLRPPRLPRPRPRPDSPPRP	-0.119
RRIRWRPPRLPRPRPRPAATPRP	2.26
RRIRHRPPRLPRPRPRPCHNPRP	-0.261
RRIRNRPPRLPRPRPRPNASPRP	0.374
RRIRQRPPRLPRPRPRPHHRPRP	0.104
RRIRVRPPRLPRPRPRPMKRPRP	0.0336
RRIRERPPRLPRPRPRPTNLPRP	-0.0315
RRIRDRPPRLPRPRPRPYWHPRP	-0.921
RRIRYRPPRLPRPRPRPPCCPRP	-0.149
RRIRARPPRLPRPRPRPAKAPRP	0.332
RRIRWRPPRLPRPRPRPPGRPRP	0.877
RRIRTRPPRLPRPRPRPAMEPRP	-0.0176

Sequence	shrunken log2 fold change
RRIRCRPPRLPRPRPRPGFFPRP	0.0565
RRIRWRPPRLPRPRPRPKHCPRP	0.0806
RRIRVRPPRLPRPRPRPPGKPRP	0.0564
RRIRIRPPRLPRPRPRPIQNPRP	-0.225
RRIRERPPRLPRPRPRPRTVPRP	0.0995
RRIRYRPPRLPRPRPRPTLRPRP	-0.484
RRIRCRPPRLPRPRPRPWDQPRP	0.0182
RRIRIRPPRLPRPRPRPEKHPRP	-0.106
RRIRRRPPRLPRPRPRPIYVPRP	-0.114
RRIRHRPPRLPRPRPRPKFGPRP	0.0962
RRIRGRPPRLPRPRPRPPDTPRP	1
RRIRYRPPRLPRPRPRPVHYPRP	-0.0657
RRIRYRPPRLPRPRPRPHGEPRP	0.0796
RRIRPRPPRLPRPRPRPHFWPRP	0.482
RRIRTRPPRLPRPRPRPVENPRP	-0.146
RRIRHRPPRLPRPRPRPAKIPRP	-0.0242
RRIRERPPRLPRPRPRPWHKPRP	-0.236
RRIRMRPPRLPRPRPRPLQDPRP	2.56
RRIRNRPPRLPRPRPRPDHCPRP	0.0463
RRIRDRPPRLPRPRPRPSTRPRP	0.152
RRIRERPPRLPRPRPRPYCRPRP	-0.394
RRIRMRPPRLPRPRPRPVYCPRP	0.00982
RRIRGRPPRLPRPRPRPPCHPRP	0.429
RRIRDRPPRLPRPRPRPFNYPRP	-0.048
RRIRCRPPRLPRPRPRPQQMPRP	0.013

Sequence	shrunken log2 fold change
RRIRTRPPRLPRPRPRPPWTPRP	0.167
RRIRWRPPRLPRPRPRPHWFPRP	0.0392
RRIRNRPPRLPRPRPRPMTGPRP	-0.149
RRIRFRPPRLPRPRPRPVHRPRP	-0.261
RRIRFRPPRLPRPRPRPFAMPRP	-0.326
RRIRKRPPRLPRPRPRPPINPRP	-0.0392
RRIRMRPPRLPRPRPRPNNNPRP	-0.134
RRIRIRPPRLPRPRPRPPLLPRP	0.444
RRIRCRPPRLPRPRPRPEAYPRP	-0.0117
RRIRERPPRLPRPRPRPEHMPRP	-0.0272
RRIRNRPPRLPRPRPRPECMPRP	0.406
RRIRARPPRLPRPRPRPPLEPRP	0.583
RRIRARPPRLPRPRPRPPSQPRP	0.669
RRIRGRPPRLPRPRPRPLFEPRP	0.739
RRIRCRPPRLPRPRPRPLDHPRP	-0.289
RRIRKRPPRLPRPRPRPNSWPRP	0.222
RRIRGRPPRLPRPRPRPRHVPRP	0.218
RRIRPRPPRLPRPRPRPCSEPRP	-0.00276
RRIRDRPPRLPRPRPRPCWNPRP	-0.389
RRIRDRPPRLPRPRPRPANPPRP	0.234
RRIRYRPPRLPRPRPRPTWCPRP	-0.544
RRIRYRPPRLPRPRPRPSHWPRP	-0.225
RRIRLRPPRLPRPRPRPHSGPRP	-0.0238
RRIRYRPPRLPRPRPRPVLPPRP	-0.511
RRIRWRPPRLPRPRPRPACDPRP	0.788

From the supplement of paper PMC9112550, “Optimization of the antimicrobial peptide Bac7 by deep mutational scanning” (BMC Biology, 2022)
